PMC3561355, “NMR Structure of Integrin α4 Cytosolic Tail and Its Interactions with Paxillin” (PLoS ONE, 2013)

B1: paxillin fragment residues G139-K277 (PaxLD2-LD4) (domain or fragment)
chain: MGSNLSELDRLLLELNAVQHNPPGFPADEANSSPPLPGALSPLYGVPETNSPLGGKAGPLTKEKPKRNGGRGLEDVRPSVESLLDELESSVPSPVPAITVNQGEMSSPQRVTSTQQQTRISASSATRELDELMASLSDFK
notes: initiation Met introduced before G139; paxillin residues G139-K277, holding the LD2, LD3 and LD4 repeats; Used 15N-labelled or unlabelled; also called recombinant paxillin (residues G139-K277 encompassing LD2-LD4); source: E. coli BL21(DE3), purified (NTA beads, HPLC)
B2: paxillin LD4-containing peptide (peptide)
peptide: ATRELDELMASLSDFKFMAQ
notes: paxillin stretch holding the LD4 repeat; runs four residues (FMAQ) beyond K277, the end of PaxLD2-LD4; also called peptide-containing LD4; source: synthetic peptide, bought: GL Biochem (Shanghai), further purified by reverse phase HPLC
B3: integrin α4 cytosolic tail (Lys968-Asp999) (domain or fragment)
chain: KAGFFKRQYKSILQEENRRDSWSYINSKSNDD
notes: Used 15N-labelled or unlabelled in the HSQC experiments; also called α4 CT; full-length α4 CT; source: E. coli BL21(DE3), KSI fusion from inclusion bodies, purified (Ni-NTA, cyanogen bromide cleavage, HPLC); not shown: His6, N-terminal, cleaved; ketosteroid isomerase (KSI), N-terminal, cleaved
B4: paxillin LD3-containing peptide (peptide)
peptide: VRPSVESLLDELESSVPSPV
notes: paxillin stretch holding the LD3 repeat; also called peptide-containing LD3; source: synthetic peptide, bought: GL Biochem (Shanghai), further purified by reverse phase HPLC

Tests used:
Conditions in all cases: both partners purified
[1] = biological target: B3; experiment: NMR titration; 15N-1H HSQC of 15N-labelled α4 CT (100 µM) without and with unlabelled PaxLD2-LD4, molar ratios 1:1 and 1:2; 10 mM sodium phosphate, pH 6.5, 298 K
[2] = biological target: B3; experiment: NMR titration; 15N-1H HSQC of 15N-labelled α4 CT without and with unlabelled synthetic LD-containing peptides, ratio 1:4 (α4 CT:peptides)
[3] = biological target: B1; experiment: NMR titration; 15N-1H HSQC of 15N-labelled PaxLD2-LD4 (200 µM) without and with unlabelled α4 CT, molar ratios 1:1 and 1:2; 10 mM sodium phosphate, pH 6.5, 298 K

Row | Binder | binding result [2] | further results
1 | B1 |  | binding result [1]: binds
2 | B2 | binds | 
3 | B3 |  | binding result [3]: binds
4 | B4 | binds | 
